In the DeepSol protein solubility set:

Assay: soluble on expression in E. coli; label from the status in PepcDB or PDB records

| Sequence | soluble on expression in E. coli |
| --- | --- |
| MGSDKIHHHHHHMLITETFHDVQTSYGTTLRIYVYSPKIAGYPQAKFPGVILYSEIYQVTGPVRRFGQRIASEGYVVVAPAIYHNFMGPEALPYDVQGTDIGNEYKIKKPLESYDEDNKLCCDLLFQLPQFDGKRIGSTGMCLGGHLAFRALLDKRVTCATCFFPTDIHSRTLGLGQNDNSLERVSKELGNNQEMVLIFGTADTHVDPQGRDLIRKTLRDHGVKFTFLEILAAQHAFIRDEFSKGRFDSAITQSCLGFLFEQFNRKLRIDLGEFVDDNTPLEHVC | not soluble |
| MGSDKIHHHHHHMLKHADIWAAIDALARDHGLTASALARKAGLDPTTFNKSKRVTREGKPRWPSTESVAKVLEATGATMTAFVGYIEDTAQARQTANTIPLIGFAQAGDCGYFDDAGYPVGGSWDEIPFPEIGDPHAYALEVSGDSMEPLYRDGDVVIVSPAAGVRRGDRVVVRTTEGEVMVKQLVRQTAKRIELASINPAHPGRSLATEEVAWIARILWSSQ | not soluble |
| MGSDKIHHHHHHMLKLSVCLLTCNSARLLMEVLPPLLKVADECIVVDSGSTDETVAICQQFGLTVHHHAYKAHGAQMNYAIGLASHDWVLCMDSDEILDNDVVAAIQALKAGEEPEPTCAWRLPRYWFVLGKQVRTIYPISSPDYPVRLFNRQQARFNDRPVDDQVVGHASSVRLPGFVRHDTFYSLHEVFNKLNSYTTRLVKYQQIKPSLTRGIVSAIGAFFKWYLFSGAWRYGKVGVVTGLYATFYSFLKYFKAWYAHEDNQAPVAQKRTDP | not soluble |
| MGSDKIHHHHHHMLKLYSFGPAANSMKPLLTVFEKGLDVEKHRLDPAKFEHHTDWFKAINPRGQVPALVDGDKVVTESTVICEYLEDEYPTEVALRPADSFGKAQMRIWTKWVDEYFCWCVSTIGWHRYVGNMVKSLSDAEFEEKVKAIPVIEQQVKWRRAREGFPQDMLDEEMRKIAYSVRKLDDHLADHEWLVPGQYTLADICNFAIANGMQFGFAELVNKQDTPHLVRWIEQINERPAVKQMFAQVELEKLGPRE | not soluble |
| MGSDKIHHHHHHMLLGSFQSVLEARNRDEFRGEVVRFAKRLGFETVSAITVVDHPVGDTEFVAIDNAPDAYKDAIEDPKAGQLDPVMQHCKRQSVPIIWDQSTYVSAGQGSMWEAQARFGFRTGICLALHMPEGRHFVIGVDRDQALPKDRGEVTRLVADLQLFAVHAQDTAMRVLVPERLQLERPKLTPRELDSLRWTMDGKTAWEVGSIMGISERTAVLHINNAMHKLACTNKHQAVLKALRLGLLR | not soluble |
| MGSDKIHHHHHHMLLHIPNVLNAEQLRIVRERLDTAGDAWVDGRATAGYQGAPVKRNQQIAEHTPIARELGDVILASIERNPLFISSVLPNQVYPPLFNRYEGGMQFGSHVDGAVRVLPNGVKLRTDVSVTLFISDPADYDGGELVIEDTYGVQQVKLPAGDMIVYPATSLHQVTPVTRGVRVASFFWVQSLVRSDTQRAMLFDMDTAIQRLNATNADDAARRSLVGIYHNLLRTWSEP | not soluble |
| MGSDKIHHHHHHMLLKNASFYDDEVLKRADIRLKDSLITEIKENLSPINNEEVIECRDLFVLPSFIDLSVTGLEGYENLKQKAFKGGVGLLNVFNCDQSGIKNIMAIKNNQLADIATLKNKGGEILIAPSDAFLELISHYAKSYNLPLLISLENSFEALNSGELAYELGQNFVENAFENTRLVRFMEVSRALQIPVLLDKVNSITTLKLIKAFNDLGAKLQAQTPLSHLVLDESVYEDYEPRFKIAPPLRDKESQNALKEALKNNEIAMLTSLHASKNSNAQLFEESAFGCESIEDAFSVAYTFLVQKKVISFQQLIKVMAINQAKFLKLNAGEVKENQLANLMIVDLNAQTRVSNQNSPFYGLELYGEVQRMILKGQTTFIKENACKKS | not soluble |
| MGSDKIHHHHHHMLLSSDASAFLSPRTVQASRMKPLRIGLFTDTFLPDQNGIVTSVGLLSDELRARGHHVDVVAPFFPEQQDTRPDVRRAPSVRYIFLPTYRLAWPTRKDFEQKYDLIHTHTPLTLGLAGARLARKWDVPHVATYHTHIEAYTHYVPGLTLLQKHTRVVTRLMGLYYRRADAVITPTAAMLDVTREMGVRNPVVIPTSVKPEVLQAAPPVENPWPAGTRRLLTVGRLAREKRFDLVLDTLANLPDAHLVVLGEGPEREHLIRHAERLGVAARVSFLGVKPWTEIGAYYRLAELFLFASDTETQGLVLQEAQLMGVPVIAVGARGTLSGVAQGRSGYLVAPGDVAALTRHAQAILADGQLWRRLSEGARAFGAAWTPGGVAERVLDVYASVLGVPREIPFPEAASPRNTLAYDR | not soluble |
| MGSDKIHHHHHHMLNKRAQILLKTLVERYISEGQPVGSRSLSKFSGLDLSAATIRNVMADLEDMGLVASPHASAGRIPTHQGYRFFVDTLLVVKPLDVIEIHQLQDQLHPDNPSRLINSASQLLAELTRFAGVVVSPKRNSAIFRYIEFMSLSEKRVLLIIVTPEGDVQNRVLFTDRNYSQSELTEAANFINHNYAGCAIDEIRTRLQSELKQLRQDMTSLMTAAIDAGDAAIRENSEAVIVAGERKLLDVQDLSSNMASLKKLFDLFERKTALLQLLEFSRKAEGVQIFIGEECGVVTMDEFSVVTAPYRVDGKMVGTVAVIGPTRMAYERVIPVVDMTARLLSSALSLH | not soluble |
| MGSDKIHHHHHHMLQQVPTRAFHVIAKPSGSDCNLNCDYCFYLEKQSLYREKPVTHMDDDTLEAYIRHYIAASELQNEVAFTWQGGEPTLLGLEFYRRAVALQAKYGAGRKISNSFQTNGVLLDDEWCAFLAENNFLVGLSLDGPAEIHNQYRVTKGGRPTHKLVMRALTLLQKHHVDYNVLVCVNRTSAQQPLQVYDFLCDAGVEFIQFIPVVERLADETAVRDGLKLHAPGDIQGELTEWSVRPDEFGEFLVAIFDHWIKRDVGKIFVMNIEWAFANFVGAPGAVCHHQPTCGRSVIVEHNGDVYACDHYVYPQYRLGNMHQQTIAEMIDSPQQQVFGEDKFKQLPAQCRSCNVLKACWGGCPKHRFMLDASGKPGLNYLCAGYQRYFRHLPPYLKAMADLLAHGRPASDIMQAHLMVVNK | not soluble |
| MGSDKIHHHHHHMLQQYHTKLKGTLALTDSYLTEKALQKEKGLYKFIWVRQGSITVEIDHQEMVLSKDDVISLTHLQHLEFKSIDGEYMTLLFNSNFYCIYGNDHEVSCSGFLFNGSSHLVRFTLNEEERRQLDQITEAMENEFTVSDSLQEEMLRILLKRFIIQCTRIARQRLDITREKESGFEIVRQYYNLVDEHYRTKKQVQDYADMLHKSPKTLSNIFSTCKLPSPLRVIHERVEAEAKRLLLYSNKSAKEIADILGFEDQASFSRFFKNMTGQSAVQFRNTEVGKN | not soluble |
| MGSDKIHHHHHHMLQYRSSKMISMEIVEFKWLKFLDRYRSMAKHNLSNSGMPEPDLRSMGIDTRYESYLNEMVDLDAALRDTVARRYGVDRDNVIITNGGTEAIFLASAFISASSEVIAVPSPEYEPIFIVPESLDRRVRRVKLEKIGQAEKNSESLALSLPNNPTGKYGDIADLVRDAGRTYRYVYIDETFHDFTDDRGSSLYDGSKNLIVSNTMTKFYGLSSLRVGWIVSDKENIDAIRRIKDLTTINNARFSLFLARQAIEKWDRFRERTHSIVRKNADIARKELSDFGFYSDEYEGAPFMFVGDGRFDSEMMASKAISGYGVLVAPGSYFGLDGYLRVCLTALDAREDIAAFREFAEKELGK | not soluble |
| MGSDKIHHHHHHMLRECDYSQALLEQVNQAISDKTPLVIQGSNSKAFLGRPVTGQTLDVRCHRGIVNYDPTELVITARVGTPLVTIEAALESAGQMLPCEPPHYGEEATWGGMVACGLAGPRRPWSGSVRDFVLGTRIITGAGKHLRFGGEVMKNVAGYDLSRLMVGSYGCLGVLTEISMKVLPRPRASLSLRREISLQEAMSEIAEWQLQPLPISGLCYFDNALWIRLEGGEGSVKAARELLGGEEVAGQFWQQLREQQLPFFSLPGTLWRISLPSDAPMMDLPGEQLIDWGGALRWLKSTAEDNQIHRIARNAGGHATRFSAGDGGFAPLSAPLFRYHQQLKQQLDPCGVFNPGRMYAEL | not soluble |
| MGSDKIHHHHHHMLRGLWGAAAGMITQQQRQEMLTNNLANVNTPGYKADQAAIRAFPNMLIAAMNTGNVPKGVAPVIGELTTGVYLQERMPNFRQGDLVETQNNTDVALLQGVMPTNEENGQPWALFYTVQNENGEVRYTRNGNFTVDGDGFLTTGDGFYVLGTDGNPLQVNNEWFNVDGDGMITDEAGAAIGQINVVVAEDPMQLVKEGNGLLRFEGDGELPTGVGNAAVNYQLQQGFIERSNVDAAQTMTEMMQAYRTFEANQQVLRAYDESLGKAVNEVGRIG | not soluble |
| MGSDKIHHHHHHMLRKDIGIDLGTANTLVFLRGKGIVVNEPSVIAIDSTTGEILKVGLEAKNMIGKTPATIKAIRPMRDGVIADYTVALVMLRYFINKAKGGMNLFKPRVVIGVPIGITDVERRAILDAGLEAGASKVFLIEEPMAAAIGSNLNVEEPSGNMVVDIGGGTTEVAVISLGSIVTWESIRIAGDEMDEAIVQYVRETYRVAIGERTAERVKIEIGNVFPSKENDELETTVSGIDLSTGLPRKLTLKGGEVREALRSVVVAIVESVRTTLEKTPPELVSDIIERGIFLTGGGSLLRGLDTLLQKETGISVIRSEEPLTAVAKGAGMVLDKVNILKKLQGAG | not soluble |
| MGSDKIHHHHHHMLSRFSDSRPAVTVKNVALTYSGADKPALQIEDLTIPEGQCVVLCGQSDSGKSSFLKMLNGLTPEYYPAQLSGQIFLGDLDLQKSSLEEISRHIASVFQHPSTQFFHSQVLQELVFPCENQGLSREEIENRLAWVMELFGLASLSRRTISSLSGGQQQRLALAVTAMQGTDVLVLDEPTANLDQEGIAIVEDILKTLKSQGKTIIIAEHRLSYLSQLADRYLYFQDGQVVTDYLADEFLSRTEECRQDMGLRCYDSEPYGRAIAELADQFVNDKEGLLVENLSVSQKENTLYEIEKLCLASGQVVGLVGANGSGKTSLARYLVGLAEDKKSRISWQGQTLSSRQRLEKTAFVMQDVRLQLFAESVERELTLGRKNRAVDEHLVARFGLSDLLERHPVSLSGGEQQRVMIVASLLADKEIFIFDEPTSGLDLRRMQQVASALVDLKMKNKLVLLISHDEELLNLVCDKIVDIKQLK | not soluble |
| MGSDKIHHHHHHMLSVTRYSIKNVRLKPWVKFIWYFETKSNILLNNKLLPTDSIDIILNLSDVMEYKIENQDYTASNMHFNGIRDKHGFIIQHGNIRVIGISFYPFGLYPFLKIPISEFNRQIVDLEAVSQLFAKKLEESLNPIQSVEKIVLYLEEVLLSILEEDLISNKYVKLLNSFIYVNRYSNIKAFCDDTNINIKTLERICLKYTGYTPKILKRIYRFKMASNQLIYNYKDDELFDFIYENEYYDQAHFIKEFKKFSGTSPIKFSGENKTIKENIKYSYL | not soluble |
| MGSDKIHHHHHHMLTRMMQATAAIQQSVDGYFAVPTSLLVPDARGGFSIYLKQERGFVLYAKEDEAFTMRHRMQLRAHGVTQVFVPAPQHPSFISHRERHFGRVLSDDSLPLPERARLFYETSTEIVKEVFEKKLPRTLKRETFDRILALVSEGISFLTLENSLKTVASLVAHDYHTYSHSLHVFVYSQALLQSYGFDEDSLVQFGLGAMLHDIGKTFLDAAILTKPAALTPDEREEVNRHPVFGVGACARMPLSQDAINCILFHHEKLDGSGYPCGLRGDEIPLPVRAITIADIYDALTSNRAYAPARNAFQVLRIMSSEMRDQLDLDMFRRFVLMLSGANVL | not soluble |
| MGSDKIHHHHHHMLTRQRPLHGIGTTQAAVLKHLRRNGIASRAELAELCGVTQAAVSMMTRDLIARGIVIQGARRQSQRGAPHIDLMLAGNIGYALGVHANSYSLTVTLLDFCGNRIGEQQLEGPYDRFSDIQTAIKSLRTDLLTSNGIDEGLLIGAAVAMPTRFRHGTAFLDLAEEVVSWAGSDLASTLRETLDCPVMIENDANAAAMGELALGNASGHDNFAYLYLSEGIGSGIIIGKELYRGNLGNAGEVGALRARGLSRPSFDDLAAWCKEHQGHIPKGRSSDQWTAYLQANPTVLDAWLRRAGPELATLAFMVTAVLAPSAIYIGGTLPRLVREKLAPWLDFSTSNPFDGARVIQPDILIPQISAVDAVAFGAAAMILHSVPGNPGL | not soluble |
